The target of this test is T1, recombinant human αvβ3 (human, UniProt P06756 31-992; P05106 27-718).
T1 construct: integrin αv, human; integrin β3, human; also called soluble αvβ3; recombinant αvβ3; source: bought: Calbiochem (Merck)
Kind of test: ELISA; solid-phase direct binding assay: 96-well plates coated overnight with 10 μg/ml β43–63 or 0.5 μg/ml vitronectin, blocked with 5% BSA in PBS; recombinant αvβ3 incubated 1.5 h; detected with anti-αvβ3 antibody, anti-mouse-HRP and OPD, read at 450 nm; nonspecific binding to plastic subtracted. As to conditions: both partners purified. Background: In an ELISA, binding on a coated surface is turned into a signal by an enzyme label.

T1 sequence (P06756 31-992, chain 1 of 2): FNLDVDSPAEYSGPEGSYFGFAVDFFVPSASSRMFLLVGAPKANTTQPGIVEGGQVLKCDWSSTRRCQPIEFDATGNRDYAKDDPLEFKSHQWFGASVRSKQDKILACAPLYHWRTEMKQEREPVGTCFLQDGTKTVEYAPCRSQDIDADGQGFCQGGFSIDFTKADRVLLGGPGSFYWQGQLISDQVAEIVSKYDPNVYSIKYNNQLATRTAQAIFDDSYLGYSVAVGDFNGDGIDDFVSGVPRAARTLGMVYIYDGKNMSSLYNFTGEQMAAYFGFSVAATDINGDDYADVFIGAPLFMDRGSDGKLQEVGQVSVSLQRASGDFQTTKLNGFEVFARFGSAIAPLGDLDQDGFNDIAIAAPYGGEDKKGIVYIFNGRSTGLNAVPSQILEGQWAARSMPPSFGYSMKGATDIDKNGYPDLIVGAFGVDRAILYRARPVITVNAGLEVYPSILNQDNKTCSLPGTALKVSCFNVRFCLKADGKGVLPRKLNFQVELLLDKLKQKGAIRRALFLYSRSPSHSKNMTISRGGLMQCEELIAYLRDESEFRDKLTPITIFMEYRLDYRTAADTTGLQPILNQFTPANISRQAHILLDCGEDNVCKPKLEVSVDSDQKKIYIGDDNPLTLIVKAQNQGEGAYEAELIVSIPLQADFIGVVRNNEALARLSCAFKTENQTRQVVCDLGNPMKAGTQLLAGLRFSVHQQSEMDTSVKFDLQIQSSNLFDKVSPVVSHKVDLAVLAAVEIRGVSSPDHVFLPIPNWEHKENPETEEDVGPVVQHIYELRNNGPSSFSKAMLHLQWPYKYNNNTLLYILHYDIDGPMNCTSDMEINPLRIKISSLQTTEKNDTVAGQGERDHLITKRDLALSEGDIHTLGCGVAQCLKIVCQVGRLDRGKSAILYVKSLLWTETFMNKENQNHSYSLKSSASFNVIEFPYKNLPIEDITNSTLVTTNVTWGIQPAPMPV
T1 sequence (P05106 27-718, chain 2 of 2): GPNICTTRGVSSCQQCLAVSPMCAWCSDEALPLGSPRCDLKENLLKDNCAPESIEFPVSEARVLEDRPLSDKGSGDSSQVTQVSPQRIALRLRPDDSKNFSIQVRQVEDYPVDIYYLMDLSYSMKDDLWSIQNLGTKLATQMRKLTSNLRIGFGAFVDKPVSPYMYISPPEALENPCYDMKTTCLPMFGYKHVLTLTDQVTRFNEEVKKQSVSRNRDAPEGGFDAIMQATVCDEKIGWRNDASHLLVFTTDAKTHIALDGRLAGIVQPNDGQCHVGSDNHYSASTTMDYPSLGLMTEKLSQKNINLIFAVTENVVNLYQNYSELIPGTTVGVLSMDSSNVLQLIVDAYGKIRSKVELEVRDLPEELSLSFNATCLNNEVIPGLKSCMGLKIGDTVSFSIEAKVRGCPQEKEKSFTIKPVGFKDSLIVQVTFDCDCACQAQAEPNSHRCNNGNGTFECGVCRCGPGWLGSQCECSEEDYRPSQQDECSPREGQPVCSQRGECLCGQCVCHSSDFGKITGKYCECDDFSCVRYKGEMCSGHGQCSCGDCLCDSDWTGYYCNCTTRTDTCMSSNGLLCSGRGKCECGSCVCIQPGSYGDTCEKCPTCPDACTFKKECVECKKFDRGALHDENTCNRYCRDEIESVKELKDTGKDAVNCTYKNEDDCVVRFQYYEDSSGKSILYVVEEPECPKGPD

B1: β43–63, 20-amino-acid peptide derived from the β chain of human fibrinogen E-fragment (peptide)
peptide: ARPAKAAATQKKVERKAPDA
notes: human fibrinogen β chain, N terminus of the β chain of FgnE, named amino acids 43–63; source: synthetic peptide (GenScript Corporation)
Turning to B1, the binding result is “binds”.
